In article PMC2606963 one finds mean dwell time, percent reduction of end binding against microtubules of tyrosinated tubulin and mean single molecule dwell time data, which are given here for two substances.

For test [1], the target named is dynamic microtubules grown in buffer from purified (tyrosinated) tubulin (pig) (UniProt P02550). Briefly: single-molecule TIRF microscopy on dynamic microtubules.
In test [2] the target is dynamic microtubules grown in buffer from detyrosinated tubulin (tubulinΔY) (pig) (UniProt P02550). Briefly: TIRF microscopy on dynamic microtubules.

Turning to “H2-GFP (GFP-tagged H2 fragment of CLIP-170) (domain or fragment)”, the mean dwell time at growing microtubule ends in test [1] stood at 0.25 s. In test [2], this substance gave a percent reduction of end binding against microtubules of tyrosinated tubulin of 87%. “EB1-GFP (full-length X. laevis EB1 fused to GFP) (natural protein)”: the mean single molecule dwell time at growing microtubule ends in test [1] was 0.05 s.
